According to publication PMC3430658, “Investigation of Real-Time Photorepair Activity on DNA via Surface Plasmon Resonance”:

What was measured:
[1] = target: T1, VcPHR (CPD photolyase, MBP fusion) (Vibrio cholerae, UniProt Q9KNA8 1-469); assay: SPR; photoactivated, DTT; repair during injection; SPR (SensiQ Discovery, neutravidin BioCap chip), 1X PBS (10 mM phosphate, 2.7 mM KCl, 137 mM NaCl) pH 7.4, 0.005% Tween 20, 25 C, 50 uL/min; protein in PBS with 1 mM DTT; settings: protein: recombinant, tags: MBP (pMal-c2x, pUNC2001)
T1 sequence: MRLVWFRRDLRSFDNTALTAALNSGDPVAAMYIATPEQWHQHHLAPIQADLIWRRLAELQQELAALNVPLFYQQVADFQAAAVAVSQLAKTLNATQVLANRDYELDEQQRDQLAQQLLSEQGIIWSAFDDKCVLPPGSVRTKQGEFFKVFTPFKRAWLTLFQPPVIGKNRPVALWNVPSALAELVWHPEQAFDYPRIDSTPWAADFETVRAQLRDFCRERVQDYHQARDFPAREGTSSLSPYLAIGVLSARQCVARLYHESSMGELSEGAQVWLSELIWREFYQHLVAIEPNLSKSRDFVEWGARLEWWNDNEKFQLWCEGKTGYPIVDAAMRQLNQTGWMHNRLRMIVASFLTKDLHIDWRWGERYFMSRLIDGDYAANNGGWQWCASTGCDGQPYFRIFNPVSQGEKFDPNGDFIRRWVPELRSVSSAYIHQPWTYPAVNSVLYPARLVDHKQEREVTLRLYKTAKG

[2] = target: T2, CRY-DASH (VcCry1, MBP fusion) (Vibrio cholerae, UniProt Q9KR33 1-461); assay: as above; settings: protein: recombinant; tags: MBP (pMal-c2x, pUNC2002); label: 5'-biotin
T2 sequence: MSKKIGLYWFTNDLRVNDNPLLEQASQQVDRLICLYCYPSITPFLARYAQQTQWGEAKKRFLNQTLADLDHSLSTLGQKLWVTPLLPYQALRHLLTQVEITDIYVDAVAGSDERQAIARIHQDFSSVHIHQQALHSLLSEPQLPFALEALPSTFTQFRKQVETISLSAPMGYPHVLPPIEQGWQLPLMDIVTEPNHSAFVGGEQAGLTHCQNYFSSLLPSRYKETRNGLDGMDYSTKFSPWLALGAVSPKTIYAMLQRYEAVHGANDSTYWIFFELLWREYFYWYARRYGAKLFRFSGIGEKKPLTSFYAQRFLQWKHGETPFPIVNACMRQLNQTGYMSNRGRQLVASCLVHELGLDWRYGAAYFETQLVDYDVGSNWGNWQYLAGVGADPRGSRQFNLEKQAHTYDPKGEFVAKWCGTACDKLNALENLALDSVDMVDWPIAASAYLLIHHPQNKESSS

[3] = target: T2, CRY-DASH (VcCry1, MBP fusion); assay: SPR; photoactivated, DTT; nonspecific, similar to BSA; SPR (SensiQ Discovery, neutravidin BioCap chip), 1X PBS (10 mM phosphate, 2.7 mM KCl, 137 mM NaCl) pH 7.4, 0.005% Tween 20, 25 C, 50 uL/min; protein in PBS with 1 mM DTT; settings: protein: recombinant; tags: MBP (pMal-c2x, pUNC2002); label: 5'-biotin
[4] = target: T1, VcPHR (CPD photolyase, MBP fusion); assay: SPR; photoactivated, DTT; described as nonspecific; SPR (SensiQ Discovery, neutravidin BioCap chip), 1X PBS (10 mM phosphate, 2.7 mM KCl, 137 mM NaCl) pH 7.4, 0.005% Tween 20, 25 C, 50 uL/min; protein in PBS with 1 mM DTT; settings: protein: recombinant, tags: MBP (pMal-c2x, pUNC2001)
[5] = target: T2, CRY-DASH (VcCry1, MBP fusion); assay: SPR; photoactivated, DTT; no significant binding, similar to BSA; SPR (SensiQ Discovery, neutravidin BioCap chip), 1X PBS (10 mM phosphate, 2.7 mM KCl, 137 mM NaCl) pH 7.4, 0.005% Tween 20, 25 C, 50 uL/min; protein in PBS with 1 mM DTT; settings: protein: recombinant; tags: MBP (pMal-c2x, pUNC2002); label: 5'-biotin on strand 1; blunt
[6] = target: T2, CRY-DASH (VcCry1, MBP fusion); assay: SPR; photoactivated, DTT; described as nonspecific; SPR (SensiQ Discovery, neutravidin BioCap chip), 1X PBS (10 mM phosphate, 2.7 mM KCl, 137 mM NaCl) pH 7.4, 0.005% Tween 20, 25 C, 50 uL/min; protein in PBS with 1 mM DTT; settings: protein: recombinant; tags: MBP (pMal-c2x, pUNC2002); label: 5'-biotin on strand 1; blunt
[7] = label: 5'-biotin on strand 1, blunt

GACGCAGATCTACGAATTCGCTTAATTCGCTGCACCGGATCCCGCTAG (ssDNA, UV 254 nm irradiated, mostly CPD (mixed lesions, positions not defined)) [UV-damaged ssDNA 48-mer]
Kd ([1]; label: 5'-biotin): 0.0012 µM
Kd [2]: 0.0637 µM

GACGCAGATCTACGAATTCGCTTAATTCGCTGCACCGGATCCCGCTAG (ssDNA) [undamaged ssDNA 48-mer]
Kd [3]: 117 µM
Kd ([4]; label: 5'-biotin): 14 µM

B1: UV-damaged dsDNA 48-mer (dsDNA)
DNA 1: GACGCAGATCTACGAATTCGCTTAATTCGCTGCACCGGATCCCGCTAG
DNA 2: CTAGCGGGATCCGGTGCAGCGAATTAAGCGAATTCGTAGATCTGCGTC
modifications: strand 1 UV 254 nm irradiated, mostly CPD (mixed lesions, positions not defined); complement undamaged
Kd [1, 7]: 0.022 µM
Kd [5]: 17.8 µM

B2: undamaged dsDNA 48-mer (dsDNA)
DNA 1: GACGCAGATCTACGAATTCGCTTAATTCGCTGCACCGGATCCCGCTAG
DNA 2: CTAGCGGGATCCGGTGCAGCGAATTAAGCGAATTCGTAGATCTGCGTC
Kd [4, 7]: 18.7 µM
Kd [6]: 52.1 µM
